Results taken from patent publication US20260151494A1 (ARO BIOTHERAPEUTICS, published 2026).

Columns and labels:
[1] = biological target: human CD71 on cells (SKBR3; SW620-rLuc-KRAS) (human, UniProt P02786 1-760); test: cell-based or functional assay
[2] = biological target: T1, human CD71 extracellular domain (human, UniProt P02786 89-760); test: primary ELISA screen, Screen 4, luminescence; note: test concentration or dose not given here
T1 construct: also called hCD71; CD71-ECD

[3] = biological target: T2, apical domain of human CD71 (human, UniProt P02786 189-383, limits assumed); test: primary ELISA screen, Screen 4, luminescence; note: test concentration or dose not given here
T2 construct: domain: apical domain; Screen 4 panned against human apical domains; also called human apical domain
T2 sequence (P02786 189-383 limits assumed): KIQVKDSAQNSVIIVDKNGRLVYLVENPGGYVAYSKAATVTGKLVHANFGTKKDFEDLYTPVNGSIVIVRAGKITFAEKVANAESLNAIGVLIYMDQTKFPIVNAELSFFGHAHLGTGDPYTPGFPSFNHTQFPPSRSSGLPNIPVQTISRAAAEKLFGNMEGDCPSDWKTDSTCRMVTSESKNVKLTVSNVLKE

[4] = biological target: T1, human CD71 extracellular domain; test: primary ELISA screen, Screen 4; signal on hCD71 over signal on HSA
[5] = biological target: T2, apical domain of human CD71; test: primary ELISA screen, Screen 4; signal on apical domain over signal on HSA

human CD71 on cells (SKBR3; SW620-rLuc-KRAS), sequence (P02786 whole entry, the tested form may be a part): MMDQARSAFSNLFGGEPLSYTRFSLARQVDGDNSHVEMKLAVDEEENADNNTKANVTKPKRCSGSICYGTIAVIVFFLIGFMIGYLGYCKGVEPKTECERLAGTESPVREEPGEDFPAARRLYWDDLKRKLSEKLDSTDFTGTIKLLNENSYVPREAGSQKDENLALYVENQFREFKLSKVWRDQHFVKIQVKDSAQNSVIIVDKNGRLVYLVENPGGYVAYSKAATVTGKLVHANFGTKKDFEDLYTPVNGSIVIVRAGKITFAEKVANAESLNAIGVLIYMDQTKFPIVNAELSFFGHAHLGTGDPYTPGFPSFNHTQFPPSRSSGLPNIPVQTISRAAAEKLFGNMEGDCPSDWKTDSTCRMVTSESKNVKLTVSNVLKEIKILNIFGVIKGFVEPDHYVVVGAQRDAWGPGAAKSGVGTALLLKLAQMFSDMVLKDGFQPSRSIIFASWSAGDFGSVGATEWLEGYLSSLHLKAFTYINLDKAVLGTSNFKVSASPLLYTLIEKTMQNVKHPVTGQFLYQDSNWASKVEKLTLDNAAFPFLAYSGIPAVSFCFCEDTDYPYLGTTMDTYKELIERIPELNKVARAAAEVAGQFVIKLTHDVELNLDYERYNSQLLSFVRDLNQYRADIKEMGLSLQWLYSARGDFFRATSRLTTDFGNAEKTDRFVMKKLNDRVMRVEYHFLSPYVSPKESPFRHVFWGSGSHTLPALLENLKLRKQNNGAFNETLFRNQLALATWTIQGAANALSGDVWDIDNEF
T1 sequence (P02786 89-760): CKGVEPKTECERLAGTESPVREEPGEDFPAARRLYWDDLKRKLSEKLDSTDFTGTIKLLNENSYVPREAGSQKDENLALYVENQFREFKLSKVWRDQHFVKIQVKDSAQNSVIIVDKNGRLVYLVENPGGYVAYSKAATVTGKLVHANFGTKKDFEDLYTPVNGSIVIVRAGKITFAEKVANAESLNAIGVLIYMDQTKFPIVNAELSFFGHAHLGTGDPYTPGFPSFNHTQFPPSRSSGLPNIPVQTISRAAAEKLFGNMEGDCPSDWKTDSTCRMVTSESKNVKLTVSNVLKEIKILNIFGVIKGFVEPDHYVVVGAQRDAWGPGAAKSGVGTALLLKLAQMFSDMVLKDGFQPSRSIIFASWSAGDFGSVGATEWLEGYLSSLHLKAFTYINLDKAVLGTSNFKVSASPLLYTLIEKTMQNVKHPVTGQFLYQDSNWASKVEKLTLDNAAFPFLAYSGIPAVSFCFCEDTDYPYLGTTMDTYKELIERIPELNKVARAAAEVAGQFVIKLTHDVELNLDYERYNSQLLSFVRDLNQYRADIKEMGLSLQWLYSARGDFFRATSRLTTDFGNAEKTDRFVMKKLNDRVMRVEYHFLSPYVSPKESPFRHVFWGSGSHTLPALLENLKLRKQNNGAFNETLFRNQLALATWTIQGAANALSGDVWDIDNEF

Binder | LSA EC50 (luciferase reporter assay, SW620-rLuc-KRAS cells, 72 h) [1] | hCD71, RLU [2] | Apical domain, RLU [3] | hCD71:HSA [4] | Apical domain:HSA [5]
CD71-binding FN3 domain of SEQ ID NO: 508 conjugated to KRAS2 siRNA (designed binder, conjugated to KRAS2 tool siRNA; site and linker not stated) MLPAPKNLVVSRVTEDSARLSWTAPDAAFDSFFIGYLEPQPPGEAITLSVPGSERSYDLTGLKPGTEYNVTIQGVKGGFPSEPLIAIFTT | 0.6 nM |  |  |  | 
CD71-binding FN3 domain of SEQ ID NO: 529 conjugated to KRAS2 siRNA (designed binder, conjugated to KRAS2 tool siRNA; site and linker not stated) MLPAPKNLVVSRVTEDSARLSWTAPDAAFDSFFIGYLEPQPPGEAIDLYVPGSERSYDLTGLKPGTEYNVTIQGVKGGFPSLPLQAHFTT | 0.52 nM |  |  |  | 
CD71-binding FN3 domain of SEQ ID NO: 516 conjugated to KRAS2 siRNA (designed binder, conjugated to KRAS2 tool siRNA; site and linker not stated) MLPAPKNLVVSRVTEDSARLSWTAPDAAFDSFFIGYLEPQPPGEAISLWVPGSERSYDLTGLKPGTEYNVTIQGVKGGFPSSPLVAYFTT | 0.6 nM |  |  |  | 
CD71-binding FN3 domain of SEQ ID NO: 552 (designed binder) MLPAPKNLVVSRVTEDSARLSWTAPDAAFDSFFIGYLEPQPPGEAIHLFVPGSERSYDLTGLKPGTEYNVTIQGVKGGFPSMPLSAIFTT |  | 4.95e+06 RLU | 5.7e+06 RLU | 119 ratio | 137 ratio
CD71-binding FN3 domain of SEQ ID NO: 546 (designed binder) MLPAPKNLVVSRVTEDSARLSWTAPDAAFDSFEIAYIEVNIQGEAIVLTVPGSERSYDLTGLKPGTEYYVHIGGVKGGPSSSPLSAIFTT |  | 3.53e+06 RLU | 4.4e+06 RLU | 374 ratio | 466 ratio

More lines, now with the values ahead:

LSA EC50 (luciferase reporter assay, SW620-rLuc-KRAS cells, 72 h) [1] | hCD71, RLU [2] | Apical domain, RLU [3] | hCD71:HSA [4] | Apical domain:HSA [5] | Binder
 | 4.73e+06 RLU | 5.29e+06 RLU | 230 ratio | 257 ratio | CD71-binding FN3 domain of SEQ ID NO: 548 (designed binder) MLPAPKNLVVSRVTEDSARLSWTAPDAAFDSFFIGYLEPQPPGEAIYLFVPGSERSYDLTGLKPGTEYNVTIQGVKGGFPSMPLSAIFTT
 | 2.86e+06 RLU | 3.49e+06 RLU | 198 ratio | 242 ratio | CD71-binding FN3 domain of SEQ ID NO: 549 (designed binder) MLPAPKNLVVSRVTEDSARLSWTAPDAAFDSFFIGYLEPQPPGEAISLWVPGSERSYDLTGLKPGTEYNVTIQGVKGGFPSMPLSAIFTT
 | 4.59e+06 RLU | 5.35e+06 RLU | 277 ratio | 322 ratio | CD71-binding FN3 domain of SEQ ID NO: 547 (designed binder) MLPAPKNLVVSRVTEDSARLSWTAPDAAFDSFFIGYLEPQPPGEAIHLIVPGSERSYDLTGLKPGTEYNVTIQGVKGGFPSDPLVASFTT
 | 4.79e+06 RLU | 5.8e+06 RLU | 141 ratio | 170 ratio | CD71-binding FN3 domain of SEQ ID NO: 550 (designed binder) MLPAPKNLVVSRVTEDSARLSWTAPDAAFDSFFIGYLEPQPPGEAIHLFVPGSERSYDLTGLKPGTEYNVTIQGVKGGFPSIPLYARFTT
 | 1.17e+06 RLU | 4.07e+06 RLU | 45 ratio | 158 ratio | CD71-binding FN3 domain of SEQ ID NO: 551 (designed binder) MLPAPKNLVVSRVTEDSARLSWTAPDAAFDSFEIAYFETCRTGEAIVLTVPGSERSYDLTGLKPGTEYWVQIGGVKGGNWSAPLSAIFTT
